From article PMC12560621, “β-Branching in the biosynthesis of bongkrekic acid: a complex affair” (RSC Advances, 2025)

Columns and labels:
[1] = target: BonA_ACP1a (Burkholderia gladioli pv. cocovenenans)
[2] = target: BonH (Burkholderia gladioli pv. cocovenenans); experiment: SEC; analytical size exclusion chromatography of the purified protein in solution; conditions in the supplementary information
[3] = target: BonA_ACP2a (Burkholderia gladioli pv. cocovenenans)
[4] = target: the molecule itself; experiment: SEC; analytical size exclusion chromatography of the purified protein in solution; conditions in the supplementary information

BonH (enzyme) gave a BonH-catalysed conversion of HMG-BonA ACP1a to the MG-ACP product, by ESMS [1] of 15% and a stoichiometry N [2] of 3.

BonI (enzyme) was tested, and the BonI-catalysed decarboxylation of MG-BonA ACP2a (made by BonH from HMG-BonA ACP2a) to endo-β-methyl-BonA ACP2a, by ESMS and Ppant ejection [3] was 50% and the BonI-catalysed conversion (with BonH) of HMG-BonA ACP1a to the endo-β-methyl-ACP product, by ESMS [1] was 15%.

B1: BonI (enzyme)
chain: MSRPAHFHGSATEMSERVVHLAELEPGIVRITLEDRTHKNAFSDRLLNGIVEAFAEVAANPSWKAVILTGYDTYFCTGGTQDMLLKLSKGEGRFTDFPIYNLPLTCEIPVIAAMQGHAVGGGLALGLFADFVVLSRESVYTANFMKYGFTPGFGSTLVMREKLGLPLAQALLMTAANYRGDELARHGIAFPVLPRAEVAAHALDIARQLADKPRHSLVTLKAHLNAPLRAMLPEVTAREVEMHERTFPHPEVQQRIRALFGS
In the case of B1, the “stoichiometry N” value [4] is reported as 3.
